Assay results published in the nanobody polyreactivity screen of Harvey et al. (2022).

Assay: yeast display, Sf9 membrane polyspecificity reagent, FACS + sequencing; frameworks hold sequencing errors
Summary of the method: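 Polyreactivity labels are assigned by the sorting gate from which each nanobody was recovered. The gates were low and high (top ~1%), set on anti-HA fluorescence for expression and streptavidin fluorescence for reagent binding. Before sorting, galactose-induced (36–48 hours) yeast display cells were stained for 1 hour at 4 °C with 10% biotinylated, detergent-solubilized Sf9 membrane reagent.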

Sequence: QVQLVESGGGLVQAGGSLRLSWAASGSIFTLNAMGWYRQAPGKERELVAAIRWSGGSTYYADSVKGRFTISRDNAKNTGYLQRNRLKPEDTAVYYCAAKYPSDYYSPGFKYWGQGTQVTVSS
- polyreactivity (PSR sort gate): high polyreactivity

Sequence: QVQLVDSGGGLVQAGGSLRLSCAASGRTLSFYGMGWYRQAPGKERELVAAISSSGSRTYYADSVKGRFTISRDNAKNTVYLQMNSLKPEDTAVYYCNALRIYHHYEYDYWGQGTQVTVSS
- polyreactivity (PSR sort gate): high polyreactivity

Sequence: QLQLGESAGGLVQAGGSLRLSCAASGSIFGLNAIGWYIQAPGKERELVAAISSGGSTYYADSVKGRFTISRDNAKNTVYLQMNSLKPEDTAVYYCNAYFQYYDYWGLGTQVTVSS
- polyreactivity (PSR sort gate): low polyreactivity

Sequence: QVQLVESGGGLVQAGGSLRLSCAASGRIFNLYDMGWYRQAPGKERELVAAITTGGDTTNYADSVKGRFTISRDNAKNTVYLQMNSLKPEDTAVYYCAADDGWIEPVYGYYEHEYWGQGTQVTVSS
- polyreactivity (PSR sort gate): low polyreactivity

Sequence: QVQLVESGGGLVQAGGSRRLSCAASGSTFDFYVMGWYRQAPGKERELVAAIRWSGGSTYYADSVKGRFTISRDNAKNTVDLPMTRLKPEDTAVDYCPADGDHYGYSYYYGYGYWGQGTQVTVSS
- polyreactivity (PSR sort gate): high polyreactivity

Sequence: QVQLVESGGGLVQAGGSLRLSCAASGGLFWTYAMGWYRQAPGKERELVATITSGGSTNYADSVKGRFTISRDNAKNTVYLQMNSLKPEETAVYYCNADWWWGYGYWGQGTQVTVSS
- polyreactivity (PSR sort gate): low polyreactivity

Sequence: QVQLVESGGGLVQAGGSLRLSCAASGRTFQYYTMGWYRQAPGKERELVAAIRRGGSTYYADSVKGRFTISRDNAKNTVYLEMNSLKPEDTAVYYCAALYAFSLTARGMEYWGQGTQVTVSS
- polyreactivity (PSR sort gate): high polyreactivity

Sequence: QVQLVESGGGLVQAGGSLRLSCAASGLTFQNNAMGWYRQAPGKERELVAAISDGGSTNYADSVKGRFTISRDNAKNTVYLQMNSLKPEDTAVYYCAAVYTSASYGSWGQGTQVTVSS
- polyreactivity (PSR sort gate): low polyreactivity

Sequence: QVQLVESGGGLVQAGGSLRLSCAASGGTMLYYAMGWYRQAPRKEMELVAVITSSAGRTYYADSVKGRITISRDNAKITVYLLMNSLKPEDTAVSYCNATGYLVGSISIYDYWGQGTQVTVSS
- polyreactivity (PSR sort gate): low polyreactivity

Sequence: QVQLVESGGGLVKAGGSLRLSCAASGSILGAYNMGWYRQAPGKERELVSAITRRGGSTYYADSVKGRFTISRDNAKNTVYLQMNSLNPEDTAVYYCNAEYGFWYDYLVVPYDYWGQGTQVTVSS
- polyreactivity (PSR sort gate): low polyreactivity

Sequence: QVQLVESGGGLVQAGGSLRLSCAASGFNFASYAMGWYRQAPGKERELVAAISWRGGSTYYADSVKGRFTISRDNAKNTVYLQMNSLKPEDTAVYYCNAYVYVGTGRGYDTLDYWGQGTQVTLSS
- polyreactivity (PSR sort gate): low polyreactivity

Sequence: QVQLVESGGGLVQAGGSLRLSCAASGRTFRVYAMGWYRQAPGKEREFVAAISYSGGRTYYADSVKGRFTISRDNAKNTVYLQMNSLKPEDTAVYYCAKRVPYGRGVTGYYWGQGTQVTVSS
- polyreactivity (PSR sort gate): high polyreactivity

Sequence: QVQLVESGGGLVQAGGSLRLSCAASGYIFSYYAMGWYRQAPGKERELVAAINRSGGRTYYADSVKGRFTISRDNAKNTVYLQMNSLKPEDTAVYYCNAYSGLSYRYGYYYWGQGTQVTVSS
- polyreactivity (PSR sort gate): high polyreactivity

Sequence: EVQLVESGGGLVQAGGSLRLSCAASGGTFRYYAMGWSRQAPGKERELVASSSSGGSTNYADSVKGRFTISRDNAKNTVYLQMNRLKPEDTAVYYCARRRFYYGHHPGSSWYDYWGQGTQVSVSS
- polyreactivity (PSR sort gate): low polyreactivity

Sequence: QVQLVESGGGLVQAGGSHRLSCAASGITFYGYARGWYRQAPGKERELVAAISGNGGRTYYADSVKGRFTISRDYAKNTVYLQMNSLKPEDTAVYYCNVKVRSRRTGDRYDYWGQGTQVTVSS
- polyreactivity (PSR sort gate): high polyreactivity

Sequence: QVQLVESGGGLVQAGGSLRLSCAASGSIFRPKAMGWYRQAPGKERELVAAINTSDDSTYYADSVKGRFTISRDNAKNSVYLQMNSLKPEDTAVYYCAAEYYAYPYGDYYDYWGQGTQVSVSS
- polyreactivity (PSR sort gate): low polyreactivity

Sequence: QVQLVESGGGLVQAGGSLRLSCAASGFTFTRNAMGWYRQAPGKERELVAAISSSAGSTSYADSVKGRFTISRDNAKNTVYLQMNSLKPEDTAVYYCAKSYRSSRRYNYWGQGTQVTVSS
- polyreactivity (PSR sort gate): high polyreactivity

Sequence: QVQLVESGGGLVQAGGSLRLSCAASGSIFTGNAMGWYRPAPGTERELVAAITRSGDSTYYADSVKGRFTISRDNAKNTVYLQMNSLKPEDTAVDYCNARWRYLHSYGYWGQGTQVTVSS
- polyreactivity (PSR sort gate): low polyreactivity

Sequence: QVQLVESGGGLVQAGGSLRLSCAHSGYILGGYGMGWYRQAPGKERELVAVITSSGSTDYADSVKGRYTISRDNAMNTVYVQMNTLKPEDSAGYYCAADFLWYIYNIGTSLEYDYWGQGTQVTVSS
- polyreactivity (PSR sort gate): low polyreactivity

Sequence: QVQLVESGGGLVQAGGSLRLSCAASGRTFAWNAMGWYRQAPGKERELVAAISSRGTSTYYADSVKGRFTISRDNAKNTVYLQMNSLKPEDTAVYYCAKYTNPASGEYGYWGQGTQVTVSS
- polyreactivity (PSR sort gate): high polyreactivity

Sequence: QVQLVESGGGLVQAGGSLRLSCDASGSTFGRNAMGCYRQAPGKESELVAAITASGGRTYYADSVKGRFTISRDNAKNTVYLQMNSLKPEDTAVYYCAAASRVGFLYYYWGQGTQVTLSS
- polyreactivity (PSR sort gate): low polyreactivity

Sequence: QVQLVESGGGLVQAGGSLRLSCAASGSTFAQNTMGSYRQAPGKERELVATISDGGGSTYYADSVKGRFTISRDNAKNTVYLQMNSLKPEDTAVYYCNTDRFWPSYYWGQGTQVTVSS
- polyreactivity (PSR sort gate): low polyreactivity

Sequence: QVQLVESGGGLVQAGGSLRLSCAASGSTFDLNAMGWYRQAPGKERELVARITSSTGRTFYADSVKGRFTISRDNAKNTVYLQMNSLKPEDTAVYYCAKDHASYSYWPSVLPYDHWGQGTQVTVSS
- polyreactivity (PSR sort gate): low polyreactivity

Sequence: QVQLVESGGGLVQAGGSLRLSCAASGSTFNSYAMGWYRQAPGKERELVAAISWSGGSTYYADSVKGRFTISRDNAKNTVYLQMNSLKPEDTAVYYCNADYWWEYAYGVDYWGQGTQVTVSS
- polyreactivity (PSR sort gate): low polyreactivity

Sequence: QVQLVESGGGLVQAGGSLRLSCAATGSISGYYAMGWYRQAPGKERELVASIRYTGARTYYADSVKGRFTISRDNAKNTVYLQMNSLKPEDTAVYACAADVKRDRVWGGDYWGQGTQVTVSS
- polyreactivity (PSR sort gate): low polyreactivity

Sequence: QVQIVESGGGLVQAGGSLRLSCAASGSIFDSNAMGWYRQAPGKERELVASITSDGDTYYADSVKGRFTISRDNAKNTVYLQMNSVKPEDTAVYYGAAYVPYSGLDYWGQGTQVTVSS
- polyreactivity (PSR sort gate): low polyreactivity

Sequence: QDQLVESGGGLVQAGGSLRLSCAASGSTRIYAMGWYRRAPRKEMELVAAISWTGGRTYYADSVKGRFTISRDNAKIIVYLQMNSLKPEYTAVYYCAAQYFTFYWKLDYWGQGTQVTVSS
- polyreactivity (PSR sort gate): high polyreactivity

Sequence: QVQLVESGGGLVQAGGSLRLSCAASGSSFYDYAMVWYRQAPGKERELVAAINGNGDSTYYADSVKGRFTISRDNAKYTVYLQMNSLKPEDNAVYYCAAYLGWGYDYWGQGTQVTVSS
- polyreactivity (PSR sort gate): low polyreactivity

Sequence: QVQLVESGGGLVQAGGSLRISCAASGRIFSYNAMGWYRQAPGKERELVAAITTGGSTYYADSVKGRFTISRDNAKNTVYLQMNSLKPEDTAVYYSIKLGYYYDRRYDYWGQGTQVNVSS
- polyreactivity (PSR sort gate): high polyreactivity

Sequence: QVQHVESRGGLVQAGGSLRLSCAASGSTIGFYAMGWYRQAPGKERELVAGITNGGRTYYADSVKGRFTISRDNAKNTVYLQMISLKPEDTAVYYCIRTPRSKGNYWGQGTQVTVSS
- polyreactivity (PSR sort gate): high polyreactivity

Sequence: QVQLVESGGGLVQAGGSLRLSCAASGYTFGYYAMGWYRQAPGKERELVAAISLNGGSTYYADSVKGRFTISRDNAKNTVYLQMNSLKPEDSAVYYCNALYNYAEIYGRGYCGQGTQVTVSS
- polyreactivity (PSR sort gate): high polyreactivity

Sequence: QVQLVESGGGLVQSGGSLRLSCAASGYIFRFNAMGWYRQAPGKEREMVAVITSGARTYYADSVKGRFTISRDNAKNTVYLQMNSLKPEDTAVYYCNAGARRYLYDYWGHGTQVTVSS
- polyreactivity (PSR sort gate): low polyreactivity

Sequence: QVQLVESGGGLVQAGGSLRLSCAASGSIFSVNAMGWYRQAPGKEREFVAGISTSGGSTYYADSVKGRFTISRDNAKNTVYLQMNSLKPEDTAVYYCAKGNFLYWQVRYYRPYKSRFYYWGQGTQVTVSS
- polyreactivity (PSR sort gate): low polyreactivity

Sequence: QVQLVESGGGLVQAGGSLRLSCAASGRTFRSNAMGWFRQAPGKERELVAAISRTGRTNYADSVKGRFTISRDNAKNTVYLQMNSLKPEDTAVYYCAARGYSVPWQERYDYWGQGTQVTVSS
- polyreactivity (PSR sort gate): high polyreactivity

Sequence: QVQLVESGGGLVQAGGSLRLSCAASGFTIARNTMGWYRPAPGKERELVAAISGGGSTNYADSVKGRFTISRDNAKYTVYLQMNSLKPEDTAVYYCNADSNSDNNDYDYWGQGTQVTVSS
- polyreactivity (PSR sort gate): low polyreactivity

Sequence: QVQLVESGGRLVQAGGSLRLSCAASGFIFYQYAMGWYRQAPGKERELVAVISRTGSTSYADSVKGRFTISRDNAKNSVYLQLNSLKAEDTAGYYCAKKRALRYYGYDYWGQGTQVTVSS
- polyreactivity (PSR sort gate): high polyreactivity

Sequence: QVQLVESGGGLGQAGGSLRLSCSASGRIFDIYGMGWYRQAPGKERELVAAITSGGDTNYADSVKGRFTISRDNAKNTVYLQMNSLKPEDTAVYYCAARIRDQDRYDYDYWGQGTQVTVSS
- polyreactivity (PSR sort gate): low polyreactivity

Sequence: QFQLVESGGGLVQAGGSLRLSCAASGITFTFNARGWYRQAPGKERELVAAITWSGGSPFYADSVKGRFTISRDNAKNTVYLQLNSLNPEDTAVYYCARDTELYVRWLDYWGQGTQVTVSS
- polyreactivity (PSR sort gate): low polyreactivity

Sequence: QVQLQESGGGLVRAGGSLRLSCAASGYISTSIAIGWYRQAPGKERELVASFGAGAITNYADSVKGFTISRDNGKKTVYLQMNSLKPVDTALYYCAVYHGDRGYYSYWGQGTQVTVSS
- polyreactivity (PSR sort gate): low polyreactivity

Sequence: QVQLVESGGGLVQAGGSLRLSCAASGSTFWVNAMGWYRQAPGKERELVAAITYSGGSTHYADSVKGRFTISRDNAKNTVYLQMNSLKPEDTAVYYCNAEHWADYDYWGQGTQVTVSS
- polyreactivity (PSR sort gate): low polyreactivity

Sequence: QLQLVESGGGLVQAGGSLRLSCAASGSIFCQNNMGWYRQAPGKERELVDTITSAGSTYYADSVKGRFTISRANAQNTVYLQMNSLKPEYTAVFYCAAELYRYGFYVPIYPYSYDYWGQGTQVTVSS
- polyreactivity (PSR sort gate): low polyreactivity

Sequence: QVQLVESGGGLVQAGGSLRLSCAASGFIFAWYAMGWYRQAPGKERELVASISVSDGSTYYADSVKGRFTISRDNAKNTVYLQMNSLKPEDTAVYYCAADRFYDQAYDYWGQGTQVTVSS
- polyreactivity (PSR sort gate): low polyreactivity

Sequence: QVQLVESGGGLVQAGGSLRLICAASGSTFDVNAMGWYRQAPGKEREFVAANSWSGGSTYYADSVKGRFTISRDIAKNTVYLQMNSLKPEDTAVYYCNADYVFKDGLGFRGLAGGDYWGQGTQVTVSS
- polyreactivity (PSR sort gate): low polyreactivity
